Data as given in the supplement of paper PMC10724198.
± gives the standard deviation of the averaged measurements.

Tests used:
Test in all cases: protein stability index of tFT-peptide fusion (C-terminal peptide) (PSI (0-1 scale)); higher = more stable (slower turnover)
Saccharomyces cerevisiae [1] = details: temperature: 30 C
Method: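 MPS profiling in S. cerevisiae of the yeast C-terminome library: the last 12 aa of each annotated ORF are fused to the C-terminus of a sfGFP-mCherry timer, after a GGGS linker. Cells are FACS-sorted into 8 mCherry/sfGFP bins and deep-sequenced. PSI runs from 0 (unstable) to 1 (stable); wild type and das1Δ backgrounds, two technical replicates each.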

Saccharomyces cerevisiae [2] = test system: Saccharomyces cerevisiae
Method: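 MPS profiling in S. cerevisiae of the tFT-X12 degron library: putative degron peptides plus stable controls, 12 aa, fused to the C-terminus of a sfGFP-mCherry timer. Cells are FACS-sorted into 8 mCherry/sfGFP bins and deep-sequenced. PSI runs from 0 (unstable) to 1 (stable). Backgrounds are wild type, das1Δ and doa10Δ at 30 °C, and wild type, das1Δ, cdc34-1 and cdc53-1 at 37 °C; 2-3 technical replicates each.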

Saccharomyces cerevisiae [3] = details: genetic background: wild type; temperature: 30 C
[4] = genetic background: das1 deletion
[5] = genetic background: cdc34-1, temperature: 37 C
[6] = genetic background: cdc53-1, temperature: 37 C
[7] = genetic background: das1 deletion, temperature: 30 C
[8] = genetic background: das1 deletion, temperature: 37 C
[9] = genetic background: doa10 deletion, temperature: 30 C
[10] = genetic background: wild type, temperature: 30 C
[11] = genetic background: wild type, temperature: 37 C

Row | Sequence | protein stability index (Saccharomyces cerevisiae [1]; [4]) | protein stability index (Saccharomyces cerevisiae [1]; genetic background: wild type) | protein stability index (Saccharomyces cerevisiae [2]; [5]) | protein stability index (Saccharomyces cerevisiae [2]; [6]) | protein stability index (Saccharomyces cerevisiae [2]; [7]) | protein stability index (Saccharomyces cerevisiae [2]; [8]) | protein stability index (Saccharomyces cerevisiae [2]; [9]) | protein stability index (Saccharomyces cerevisiae [2]; [10]) | protein stability index (Saccharomyces cerevisiae [2]; [11]) | protein stability index (Saccharomyces cerevisiae [3])
1 | ADIMEKVHKWFA [PSE1 C-terminal 12 aa] | 0.68931 ± 0.00046 | 0.6649 ± 0.0041 |  |  |  |  |  |  |  | 
2 | ADKELSFEINVK [BRR2 C-terminal 12 aa] | 0.6946 ± 0.003 | 0.741 ± 0.066 |  |  |  |  |  |  |  | 
3 | AFSDLSTLENAS [ATG42 C-terminal 12 aa] | 0.7267 ± 0.001 | 0.723 ± 0.03 |  |  |  |  |  |  |  | 
4 | AFTRRRFMNKSL [ARC18 C-terminal 12 aa] | 0.69 ± 0.012 | 0.485 ± 0.034 |  |  |  |  |  |  |  | 
5 | AGIHPDRAKLLK [NOP6 C-terminal 12 aa] | 0.68 ± 0.013 | 0.6934 ± 0.0056 |  |  |  |  |  |  |  | 
6 | AGTENDEEEFNI [PSF2 C-terminal 12 aa] | 0.674 ± 0.018 | 0.672 ± 0.044 |  |  |  |  |  |  |  | 
7 | AINYIGNIRRNE [ACO2 C-terminal 12 aa] | 0.7288 ± 0.0043 | 0.727 ± 0.048 |  |  |  |  |  |  |  | 
8 | AIRTRKFDNNKR [RED1 C-terminal 12 aa] | 0.716 ± 0.046 | 0.6648 ± 0.0027 |  |  |  |  |  |  |  | 
9 | AIWIFYIDFRVH [YCL021W-A C-terminal 12 aa] | 0.227 ± 0.024 | 0.201 ± 0.011 |  |  |  |  |  |  |  | 
10 | AKDAFTSTLPTH [GFD2 C-terminal 12 aa] | 0.7 ± 0.017 | 0.716 ± 0.021 |  |  |  |  |  |  |  | 
11 | AKDYLLDLAGQA [YBR085C-A C-terminal 12 aa] | 0.71316 ± 0.00065 | 0.659 ± 0.012 |  |  |  |  |  |  |  | 
12 | AKLSEGTSFRRK [RPS27A C-terminal 12 aa] | 0.6952 ± 0.0023 | 0.681 ± 0.037 |  |  |  |  |  |  |  | 
13 | AKNARPSKKRKF [DBP10 C-terminal 12 aa] | 0.752 ± 0.025 | 0.6782 ± 0.0047 |  |  |  |  |  |  |  | 
14 | AKPKYEKILIDN [RTC2 C-terminal 12 aa] | 0.703 ± 0.011 | 0.666 ± 0.035 |  |  |  |  |  |  |  | 
15 | AKRDILPSPVSV [LPP1 C-terminal 12 aa] | 0.6165 ± 0.005 | 0.646 ± 0.04 |  |  |  |  |  |  |  | 
16 | ALKHGEKAFNIN [NEM1 C-terminal 12 aa] | 0.678 ± 0.017 | 0.6766 ± 0.0023 |  |  |  |  |  |  |  | 
17 | ALLDGFVTAAGY [DAK2 C-terminal 12 aa] | 0.745 ± 0.027 | 0.728 ± 0.016 |  |  |  |  |  |  |  | 
18 | AMLKPSSKEGSP [COQ10 C-terminal 12 aa] | 0.6955 ± 0.0028 | 0.718 ± 0.0063 |  |  |  |  |  |  |  | 
19 | ANESLEEDLNLD [YBR137W C-terminal 12 aa] | 0.698 ± 0.031 | 0.661 ± 0.025 |  |  |  |  |  |  |  | 
20 | ANKNDAISKKVE [ATG23 C-terminal 12 aa] | 0.69 ± 0.017 | 0.763 ± 0.077 |  |  |  |  |  |  |  | 
21 | AQQNYRLWLSSV [ATG41 C-terminal 12 aa] | 0.682 ± 0.016 | 0.3264 ± 0.0023 |  |  |  |  |  |  |  | 
22 | ARLLRFWDHIIR [SHU1 C-terminal 12 aa] | 0.728 ± 0.016 | 0.686 ± 0.06 |  |  |  |  |  |  |  | 
23 | ARTSDELQFTLP [MPT5 C-terminal 12 aa] | 0.7165 ± 0.0027 | 0.6868 ± 0.0057 |  |  |  |  |  |  |  | 

Row | Sequence | protein stability index (Saccharomyces cerevisiae [1]; [4]) | protein stability index (Saccharomyces cerevisiae [1]; genetic background: wild type) | protein stability index (Saccharomyces cerevisiae [2]; [5]) | protein stability index (Saccharomyces cerevisiae [2]; [6]) | protein stability index (Saccharomyces cerevisiae [2]; [7]) | protein stability index (Saccharomyces cerevisiae [2]; [8]) | protein stability index (Saccharomyces cerevisiae [2]; [9]) | protein stability index (Saccharomyces cerevisiae [2]; [10]) | protein stability index (Saccharomyces cerevisiae [2]; [11]) | protein stability index (Saccharomyces cerevisiae [3])
24 | ARVASQLGQKKK [PRO3 C-terminal 12 aa] | 0.6735 ± 0.0064 | 0.684 ± 0.014 |  |  |  |  |  |  |  | 
25 | ASPTCTPQNPCV [CAB4 C-terminal 12 aa] | 0.706 ± 0.021 | 0.735 ± 0.062 |  |  |  |  |  |  |  | 
26 | ASYIQSREICLV [GNT1 C-terminal 12 aa] | 0.6464 ± 0.006 | 0.5859 ± 0.0036 |  |  |  |  |  |  |  | 
27 | ATGGKKTTFADE [RPA14 C-terminal 12 aa] | 0.711 ± 0.054 | 0.667 ± 0.036 |  |  |  |  |  |  |  | 
28 | ATTDQEGDIHLE [PRE10 C-terminal 12 aa] | 0.689 ± 0.026 | 0.678 ± 0.038 |  |  |  |  |  |  |  | 
29 | ATTNISVLQECV [VRL1 C-terminal 12 aa] | 0.666 ± 0.018 | 0.642 ± 0.011 |  |  |  |  |  |  |  | 
30 | VWLFSWSVVGGT |  |  | 0.436 ± 0.037 | 0.5425 ± 0.0026 | 0.369 ± 0.017 | 0.523 ± 0.012 | 0.369 ± 0.014 | 0.376 ± 0.0048 | 0.5069 ± 0.00074 | 0.433 ± 0.02
31 | VWSVSVTIVGRR |  |  | 0.5289 ± 0.0013 | 0.573 ± 0.035 | 0.423 ± 0.037 | 0.528 ± 0.017 | 0.439 ± 0.032 | 0.455 ± 0.0093 | 0.507 ± 0.0052 | 0.458 ± 0.011
32 | VYFASCVVLLMV |  |  | 0.159 ± 0.028 | 0.188 ± 0.025 | 0.194 ± 0.029 | 0.3194 ± 0.0019 | 0.159 ± 0.0018 | 0.174 ± 0.017 | 0.251 ± 0.015 | 0.264 ± 0.029
33 | VYLVVLYLRYFA |  |  | 0.205 ± 0.031 | 0.22 ± 0.011 | 0.192 ± 0.038 | 0.359 ± 0.023 | 0.173 ± 0.0089 | 0.174 ± 0.016 | 0.306 ± 0.023 | 0.227 ± 0.037
34 | VYVYTIRVRWSE |  |  | 0.135 ± 0.024 | 0.274 ± 0.039 | 0.197 ± 0.013 | 0.289 ± 0.023 | 0.164 ± 0.021 | 0.184 ± 0.027 | 0.269 ± 0.03 | 0.277 ± 0.015
35 | WAFVVCGAVFFW |  |  | 0.264 ± 0.025 | 0.358 ± 0.031 | 0.299 ± 0.014 | 0.466 ± 0.005 | 0.289 ± 0.024 | 0.282 ± 0.036 | 0.412 ± 0.022 | 0.358 ± 0.019
36 | WCLLGVPVRVVV |  |  | 0.373 ± 0.014 | 0.391 ± 0.056 | 0.307 ± 0.042 | 0.462 ± 0.0047 | 0.253 ± 0.0041 | 0.288 ± 0.042 | 0.441 ± 0.0045 | 0.425 ± 0.033
37 | WCVCVSMRMIAI |  |  | 0.15 ± 0.015 | 0.193 ± 0.008 | 0.201 ± 0.011 | 0.175 ± 0.013 | 0.202 ± 0.0073 | 0.187 ± 0.002 | 0.159 ± 0.013 | 0.165 ± 0.0094
38 | WFIFATFLILVT |  |  | 0.0797 ± 0.0056 | 0.112 ± 0.0058 | 0.136 ± 0.032 | 0.2121 ± 0.001 | 0.154 ± 0.014 | 0.121 ± 0.0082 | 0.182 ± 0.012 | 0.193 ± 0.051
39 | WFLVLLFFWFLL |  |  | 0.524 ± 0.0097 | 0.628 ± 0.055 | 0.541 ± 0.0066 | 0.618 ± 0.028 | 0.55 ± 0.036 | 0.533 ± 0.022 | 0.566 ± 0.0068 | 0.48 ± 0.073
40 | WFYLLFVLFGLV |  |  | 0.56 ± 0.026 | 0.614 ± 0.012 | 0.438 ± 0.033 | 0.542 ± 0.0065 | 0.409 ± 0.027 | 0.417 ± 0.017 | 0.51 ± 0.024 | 0.426 ± 0.023
41 | WHFPCPPLPCPV |  |  | 0.4132 ± 0.0036 | 0.42896 ± 0.0003 | 0.325 ± 0.031 | 0.484 ± 0.0032 | 0.298 ± 0.0082 | 0.347 ± 0.035 | 0.4714 ± 0.0025 | 0.4846 ± 0.0013
42 | WILLVLACFSSG |  |  | 0.25 ± 0.0033 | 0.335 ± 0.051 | 0.272 ± 0.036 | 0.40822 ± 2.1e-05 | 0.215 ± 0.011 | 0.249 ± 0.034 | 0.361 ± 0.017 | 0.325 ± 0.0036
43 | WLGCVLIGWHVL |  |  | 0.355 ± 0.0098 | 0.413 ± 0.0055 | 0.288 ± 0.048 | 0.481 ± 0.01 | 0.169 ± 0.0054 | 0.19 ± 0.017 | 0.364 ± 0.052 | 0.27 ± 0.011
44 | WLKLWSYVTHLG |  |  | 0.66 ± 0.047 | 0.723 ± 0.0092 | 0.632 ± 0.025 | 0.717 ± 0.022 | 0.303 ± 0.0094 | 0.346 ± 0.021 | 0.581 ± 0.017 | 0.477 ± 0.036
45 | WSLRFRRMMLRC |  |  | 0.3765 ± 0.00088 | 0.425 ± 0.0072 | 0.429 ± 0.028 | 0.534 ± 0.0069 | 0.137 ± 0.0015 | 0.127 ± 0.026 | 0.16 ± 0.024 | 0.283 ± 0.015
